Results as given in patent publication US20240309115A1 (MERUS N V, published 2024).

T1: LAG-3 on PD-1 and LAG-3 expressing Jurkat T cells (effector cells of the PD-1/LAG-3 reporter assay) (UniProt P18627 23-525)
T1 sequence (looked up): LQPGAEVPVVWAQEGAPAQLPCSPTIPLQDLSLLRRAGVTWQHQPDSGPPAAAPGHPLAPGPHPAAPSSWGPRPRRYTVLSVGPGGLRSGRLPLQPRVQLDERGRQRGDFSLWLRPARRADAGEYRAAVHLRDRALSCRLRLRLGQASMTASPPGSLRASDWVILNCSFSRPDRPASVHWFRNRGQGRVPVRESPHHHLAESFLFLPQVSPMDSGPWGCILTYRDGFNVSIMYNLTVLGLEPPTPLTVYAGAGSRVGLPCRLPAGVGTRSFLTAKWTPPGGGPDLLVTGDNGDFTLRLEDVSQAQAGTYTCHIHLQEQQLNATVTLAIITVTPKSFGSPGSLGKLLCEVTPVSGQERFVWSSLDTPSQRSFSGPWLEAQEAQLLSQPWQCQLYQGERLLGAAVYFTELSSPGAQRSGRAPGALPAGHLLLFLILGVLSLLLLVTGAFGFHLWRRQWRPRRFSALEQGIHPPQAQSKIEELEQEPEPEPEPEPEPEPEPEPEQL

T2: human LAG-3 (293FF cell line stably transfected with human LAG-3) (human, UniProt P18627 23-525)
T2 construct: whole, on cells; also called huLAG-3; 293FF-huLAG-3
T2 sequence (looked up): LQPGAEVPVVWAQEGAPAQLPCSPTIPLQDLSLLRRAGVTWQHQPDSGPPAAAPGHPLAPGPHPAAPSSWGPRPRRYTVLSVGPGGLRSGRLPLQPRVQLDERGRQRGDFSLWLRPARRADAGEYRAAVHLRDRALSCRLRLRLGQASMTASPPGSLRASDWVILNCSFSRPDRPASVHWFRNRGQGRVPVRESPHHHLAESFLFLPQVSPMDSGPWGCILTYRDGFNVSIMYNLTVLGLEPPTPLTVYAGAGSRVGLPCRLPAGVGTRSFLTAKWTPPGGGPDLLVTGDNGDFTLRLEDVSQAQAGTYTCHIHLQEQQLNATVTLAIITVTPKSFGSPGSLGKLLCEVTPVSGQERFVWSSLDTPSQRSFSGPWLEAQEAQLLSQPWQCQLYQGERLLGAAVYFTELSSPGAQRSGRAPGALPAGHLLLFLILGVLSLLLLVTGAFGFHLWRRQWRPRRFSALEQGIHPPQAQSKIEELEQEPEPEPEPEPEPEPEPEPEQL

T3: rhesus LAG-3 (293FF cell line stably transfected with rhesus LAG-3) (rhesus, UniProt A0A5F8A874 23-533)
T3 construct: whole, on cells; also called reLAG-3; 293FF-reLAG-3
T3 sequence: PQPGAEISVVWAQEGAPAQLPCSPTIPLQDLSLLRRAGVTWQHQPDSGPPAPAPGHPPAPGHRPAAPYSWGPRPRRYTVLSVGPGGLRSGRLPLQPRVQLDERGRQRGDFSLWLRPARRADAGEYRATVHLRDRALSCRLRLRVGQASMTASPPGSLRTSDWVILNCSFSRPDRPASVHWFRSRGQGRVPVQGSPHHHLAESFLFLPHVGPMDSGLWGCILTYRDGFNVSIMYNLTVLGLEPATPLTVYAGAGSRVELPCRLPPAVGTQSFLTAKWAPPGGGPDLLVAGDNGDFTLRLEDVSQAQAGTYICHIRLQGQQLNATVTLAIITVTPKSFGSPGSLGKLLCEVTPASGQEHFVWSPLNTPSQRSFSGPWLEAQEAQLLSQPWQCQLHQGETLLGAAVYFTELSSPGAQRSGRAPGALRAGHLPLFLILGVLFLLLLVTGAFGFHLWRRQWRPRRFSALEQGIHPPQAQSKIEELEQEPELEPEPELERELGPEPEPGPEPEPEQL


Columns and labels:
[1] = molecular target: T4, cynomolgus monkey LAG-3-His (Sino Biological, Cat nr. 90841-C08H) (cynomolgus monkey); test: SPR, BIAcore T200, antibody captured by anti-huIgG Fcγ on a CM5 chip, antigen in solution, 1:1 model
T4 construct: also called cynomolgus LAG-3

[2] = molecular target: T5, PD-L1 on PD-L1 expressing Raji cells (target cells of the PD-1/LAG-3 reporter assay) (UniProt Q9NZQ7 19-290, limits assumed); test: cell-based or functional assay
T5 sequence (Q9NZQ7 19-290 limits assumed): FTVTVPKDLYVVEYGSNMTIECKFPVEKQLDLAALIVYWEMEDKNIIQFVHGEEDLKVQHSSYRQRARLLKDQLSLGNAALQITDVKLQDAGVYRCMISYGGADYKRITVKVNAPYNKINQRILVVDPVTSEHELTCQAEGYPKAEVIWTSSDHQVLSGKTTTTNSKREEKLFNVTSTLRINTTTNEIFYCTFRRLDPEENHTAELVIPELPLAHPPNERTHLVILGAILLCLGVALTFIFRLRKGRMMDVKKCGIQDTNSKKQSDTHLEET

[3] = molecular target: T1, LAG-3 on PD-1 and LAG-3 expressing …; test: cell-based or functional assay
[4] = molecular target: T6, human PD-L1 (CHO-K1 cell line stably transfected with human PD-L1) (human, UniProt Q9NZQ7 19-290); test: FACS on CHO-K1 cells expressing human PD-L1
T6 construct: whole, on cells; also called huPD-L1; CHO-K1-huPD-L1
T6 sequence (Q9NZQ7 19-290): as the sequence (Q9NZQ7 19-290 limits assumed) above

[5] = molecular target: T7, rhesus PD-L1 (CHO-K1 cell line stably transfected with rhesus PD-L1) (rhesus, UniProt F6VEW6 19-290); test: FACS on CHO-K1 cells stably expressing rhesus PD-L1, goat-anti-human PE secondary, MFI
T7 construct: whole, on cells

[6] = molecular target: T2, human LAG-3 (293FF cell line stably …); test: FACS on 293FF cells expressing human LAG-3
[7] = molecular target: T3, rhesus LAG-3 (293FF cell line stably …); test: FACS on 293FF cells stably expressing rhesus LAG-3, goat-anti-human PE secondary, MFI
[8] = molecular target: T3, rhesus LAG-3 (293FF cell line stably …); test: FACS on 293FF-reLAG-3 cells
[9] = molecular target: T2, human LAG-3 (293FF cell line stably …); test: FACS on 293FF-huLAG-3 cells
[10] = molecular target: T5, PD-L1 on PD-L1 expressing Raji cells …; test: cell-based or functional assay; remark: listed apart in the source
[11] = molecular target: T1, LAG-3 on PD-1 and LAG-3 expressing …; test: cell-based or functional assay; remark: listed apart in the source
[12] = molecular target: T6, human PD-L1 (CHO-K1 cell line stably …); test: FACS on CHO-K1-huPD-L1 cells

Binder | AUC compared to control, PD-1/LAG-3 reporter assay (luciferase) [2] | AUC compared to control, PD-1/LAG-3 reporter assay (luciferase) [3] | EC50 [4] [nM] | EC50 [6] [nM] | further results
relatlimab analog (antibody, V domains shown, also called analog of anti-LAG-3 antibody relatlimab) VH: QVQLQQWGAGLLKPSETLSLTCAVYGGSFSDYYWNWIRQPPGKGLEWIGEINHRGSTNSNPSLKSRVTLSLDTSKNQFSLKLRSVTAADTAVYYCAFGYSDYEYNWFDPWGQGTLVTVSS VL: EIVLTQSPATLSLSPGERATLSCRASQSISSYLAWYQQKPGQAPRLLIYDASNRATGIPARFSGSGSGTDFTLTISSLEPEDFAVYYCQQRSNWPLTFGQGTNLEIK | – | – | – | – | Kd [1]: 11.5 nM
SEQ ID NO: 1×SEQ ID NO: 23 bispecific antibody (bispecific antibody, Fc-silenced IgG1, monovalent for LAG-3 and for PD-L1; also called PB3; not shown: IgG1 hinge) heavy (part 1 of 2) 1: QVQLQESGPGLVRPSETLSLTCTVSGGSISSYSWSWIRQPPGKGLEWIGYIDYSGSTNYNPSLKSRVTISVDTSKTQFSLKLSSVSAADTAVYYCAKDLLYKWNYVEGFDIWGQGTTVTVSSASTKGPSVFPLAPSSKSTSGGTAALGCLVKDYFPEPVTVSWNSGALTSGVHTFPAVLQSSGLYSLSSVVTVPSSSLGTQTYICNVNHKPSNTKVDKRV heavy (part 2 of 2) 1: not shown heavy (part 1 of 2) 2: not shown heavy (part 2 of 2) 2: not shown light: not shown | 54.8 relative to AUC of positive control | 54.8 relative to AUC of positive control | 0.74 | 52.1 | EC50 (read off the curve) [5]: ~0.05 µg/mL
SEQ ID NO: 16×SEQ ID NO: 23 bispecific antibody (bispecific antibody, Fc-silenced IgG1, monovalent for LAG-3 and for PD-L1; also called PB63; not shown: IgG1 hinge) heavy (part 1 of 2) 1: QVQLVQSGAEVKKPGASVKVSCKASGYTFTSYGISWVRQAPGQGLEWMGWISAYSGNTNYAQKLQGRVTMTTDTSTSTAYMELRSLRSDDTAVYYCARGSILAAQMWGDIWGQGTLVTVSSASTKGPSVFPLAPSSKSTSGGTAALGCLVKDYFPEPVTVSWNSGALTSGVHTFPAVLQSSGLYSLSSVVTVPSSSLGTQTYICNVNHKPSNTKVDKRV heavy (part 2 of 2) 1: not shown heavy (part 1 of 2) 2: not shown heavy (part 2 of 2) 2: not shown light: not shown | 58.3 relative to AUC of positive control | 58.3 relative to AUC of positive control | 1.01 | 24.1 | –
bivalent monospecific parental LAG-3 antibody SEQ ID NO: 16 (antibody, IgG1, IgG1; not shown: IgG1 hinge) heavy (part 1 of 2): QVQLVQSGAEVKKPGASVKVSCKASGYTFTSYGISWVRQAPGQGLEWMGWISAYSGNTNYAQKLQGRVTMTTDTSTSTAYMELRSLRSDDTAVYYCARGSILAAQMWGDIWGQGTLVTVSSASTKGPSVFPLAPSSKSTSGGTAALGCLVKDYFPEPVTVSWNSGALTSGVHTFPAVLQSSGLYSLSSVVTVPSSSLGTQTYICNVNHKPSNTKVDKRV heavy (part 2 of 2): not shown light: not shown | – | – | – | 13.3 | –
SEQ ID NO: 15×SEQ ID NO: 23 bispecific antibody (bispecific antibody, Fc-silenced IgG1, monovalent for LAG-3 and for PD-L1; also called PB59; not shown: IgG1 hinge) heavy (part 1 of 2) 1: QVQLVQSGAEVKKPGASVKVSCKASGYTFTSYGISWVRQAPGQGLEWMGWISAYSGNTNYAQKLQGRVTMTTDTSTSTAYMELRSLRSDDTAVYYCARDGSGWDDFDYWGQGTLVTVSSASTKGPSVFPLAPSSKSTSGGTAALGCLVKDYFPEPVTVSWNSGALTSGVHTFPAVLQSSGLYSLSSVVTVPSSSLGTQTYICNVNHKPSNTKVDKRV heavy (part 2 of 2) 1: not shown heavy (part 1 of 2) 2: not shown heavy (part 2 of 2) 2: not shown light: not shown | 71 relative to AUC of positive control | 71 relative to AUC of positive control | 2.41 | 113 | –
SEQ ID NO: 5×SEQ ID NO: 23 bispecific antibody (bispecific antibody, Fc-silenced IgG1, monovalent for LAG-3 and for PD-L1; also called PB19; not shown: IgG1 hinge) heavy (part 1 of 2) 1: QVQLQESGPGLVKPSETLSLTCTVSDDSISDYYWSWIRQPPGKGLEWIGYIYYSGNTKYNPSLKNRVTISVDTSKSQFSLKLTSVTAADTAVYYCARIPLTGEFDYWAQGTLVTVSSASTKGPSVFPLAPSSKSTSGGTAALGCLVKDYFPEPVTVSWNSGALTSGVHTFPAVLQSSGLYSLSSVVTVPSSSLGTQTYICNVNHKPSNTKVDKRV heavy (part 2 of 2) 1: not shown heavy (part 1 of 2) 2: not shown heavy (part 2 of 2) 2: not shown light: not shown | 83.9 relative to AUC of positive control | 83.9 relative to AUC of positive control | 1.21 | 8.64 | –
SEQ ID NO: 52×SEQ ID NO: 20 bispecific antibody (bispecific antibody, IgG1; also called PB90; not shown: IgG1 hinge) heavy (part 1 of 2) 1: QVQLQESGPGLVKPSETLSLTCTVSDDSISDYYWSWIRQPPGKGLEWIGYIYYSGNTKYNPSLKNRVTISVDTSKSQFSLKLTSVTAADTAVYYCARIPLTGDFDFWAQGTLVTVSSASTKGPSVFPLAPSSKSTSGGTAALGCLVKDYFPEPVTVSWNSGALTSGVHTFPAVLQSSGLYSLSSVVTVPSSSLGTQTYICNVNHKPSNTKVDKRV heavy (part 2 of 2) 1: not shown heavy (part 1 of 2) 2: not shown heavy (part 2 of 2) 2: not shown light: not shown | – | – | – | – | EC50 [8]: 3.22 µg/mL; EC50 [9]: 1.25 µg/mL; AUC (% of control), PD-1/LAG-3 reporter assay [10]: 96.9 % of control; EC50, PD-1/LAG-3 reporter assay [10]: 1.15 µg/mL; AUC (% of control), PD-1/LAG-3 reporter assay [11]: 96.9 % of control; EC50, PD-1/LAG-3 reporter assay [11]: 1.15 µg/mL; EC50 [12]: 0.009 µg/mL

More lines, main results first:

AUC compared to control, PD-1/LAG-3 reporter assay (luciferase) [2] | AUC compared to control, PD-1/LAG-3 reporter assay (luciferase) [3] | EC50 [4] [nM] | EC50 [6] [nM] | Binder | further results
– | – | – | 0.54 | bivalent monospecific parental LAG-3 antibody SEQ ID NO: 1 (antibody, IgG1, IgG1; not shown: IgG1 hinge) heavy (part 1 of 2): QVQLQESGPGLVRPSETLSLTCTVSGGSISSYSWSWIRQPPGKGLEWIGYIDYSGSTNYNPSLKSRVTISVDTSKTQFSLKLSSVSAADTAVYYCAKDLLYKWNYVEGFDIWGQGTTVTVSSASTKGPSVFPLAPSSKSTSGGTAALGCLVKDYFPEPVTVSWNSGALTSGVHTFPAVLQSSGLYSLSSVVTVPSSSLGTQTYICNVNHKPSNTKVDKRV heavy (part 2 of 2): not shown light: not shown | –
– | – | – | 0.94 | bivalent monospecific parental LAG-3 antibody SEQ ID NO: 15 (antibody, IgG1, IgG1; not shown: IgG1 hinge) heavy (part 1 of 2): QVQLVQSGAEVKKPGASVKVSCKASGYTFTSYGISWVRQAPGQGLEWMGWISAYSGNTNYAQKLQGRVTMTTDTSTSTAYMELRSLRSDDTAVYYCARDGSGWDDFDYWGQGTLVTVSSASTKGPSVFPLAPSSKSTSGGTAALGCLVKDYFPEPVTVSWNSGALTSGVHTFPAVLQSSGLYSLSSVVTVPSSSLGTQTYICNVNHKPSNTKVDKRV heavy (part 2 of 2): not shown light: not shown | EC50 (read off the curve) [7]: ~0.6 µg/mL
– | – | – | 1.88 | bivalent monospecific parental LAG-3 antibody SEQ ID NO: 5 (antibody, IgG1, IgG1; not shown: IgG1 hinge) heavy (part 1 of 2): QVQLQESGPGLVKPSETLSLTCTVSDDSISDYYWSWIRQPPGKGLEWIGYIYYSGNTKYNPSLKNRVTISVDTSKSQFSLKLTSVTAADTAVYYCARIPLTGEFDYWAQGTLVTVSSASTKGPSVFPLAPSSKSTSGGTAALGCLVKDYFPEPVTVSWNSGALTSGVHTFPAVLQSSGLYSLSSVVTVPSSSLGTQTYICNVNHKPSNTKVDKRV heavy (part 2 of 2): not shown light: not shown | –
